Assay results from patent publication US8586706B2, “Peptide vaccine using mimic molecules of amyloid β peptide” (Kagoshima University, priority 2007, dated 2013).
No end group written: not given here. *: point of attachment. Biotin = O=C1N[C@H]2[C@H](CS[C@H]2CCCCC(=O)*)N1

Legend:
B6 scFv = experiment: ELISA: binding of B6 scFv to plate-coated synthesized TAT fusion peptide; design: species or system human; settings: ELISA plate coated with peptide 200 ng/well; B6 scFv at various concentrations; FIG. 7
Sequence of B6 scFv (as listed by the source): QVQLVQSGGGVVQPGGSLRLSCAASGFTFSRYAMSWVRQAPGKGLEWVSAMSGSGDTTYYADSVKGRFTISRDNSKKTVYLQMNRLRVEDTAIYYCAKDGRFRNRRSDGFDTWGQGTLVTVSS
Sequence of B6 scFv (as listed by the source): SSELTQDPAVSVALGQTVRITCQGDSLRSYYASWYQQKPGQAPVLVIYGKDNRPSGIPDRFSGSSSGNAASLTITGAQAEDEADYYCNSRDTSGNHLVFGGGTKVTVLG
Description: (5) The fusion peptide of TAT and B6-L1 was recognized by B6 scFv (FIG. 7). An ELISA plate was coated with the synthesized peptide TAT-B6-L1 or B6-L1-TAT under conditions of 200 ng/well. After addition of B6 scFv at various concentrations, binding activity thereof was inspected. A control peptide used was an unrelated peptide (GSGGGSCGYWRSEWGLCG)(SEQ ID NO: 32).

Aβ1-42 peptide = target: T1, Aβ1-42 peptide (Homo sapiens, UniProt P05067); experiment: Experiment of inhibition of amyloid β fibrillogenesis (thioflavine T fluorescence); type: biochemical; settings: peptide 1.65, 16.5, 33 nM; Aβ1-42 40 μM, phosphate buffer pH 7.0; 0, 6, 24 hours; FIG. 8
T1 construct: Aβ1-42 was dissolved at a concentration of 40 μM in 20 mM phosphate buffer
T1 sequence (P05067 672-713 limits assumed): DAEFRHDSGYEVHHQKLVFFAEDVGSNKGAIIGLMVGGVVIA
Description: The synthesized peptide (TAT-B6-L1, B6-L1-TAT, TAT-B7-C15, or TAT-B7-S15) was added at various concentrations (1.65 nM, 16.5 nM, and 33 nM) to the Aβ1-42 peptide diluted to 40 μM using 20 mM phosphate buffer (pH 7.0). The sample (10 μl) was recovered 0, 6, and 24 hours thereafter, 90 μl of 11 μM thioflavine T (Sigma)/phosphate buffer was added, and fluorescence intensity at 482 nm generated by the excitation light at 450 nm was measured using a multilabel plate counter, Wallac 1420 ARVO sx (Perkin-Elmer; Wellesley, Mass.).
Results of measuring activity of inhibiting Aβ1-42 fibrillogenesis by a fusion peptide of TAT and B6-L1, B7-C15, or B7-S15 are shown in FIG. 8. The experiment of inhibition of fibrillogenesis was conducted according to the procedures described in the experiment of inhibition of fibrillogenesis above.

[1] = target: T2, Aβ oligomers and Aβ fibers (Homo sapiens, UniProt P05067); experiment: Experiment of precipitation of Aβ conformers by biotinylated peptide with streptavidin-magnet beads, Western blot; type: binding; settings: biotinylated peptide added 1.5 hours after dissolution of Aβ1-42, FIG. 9
T2 construct: Aβ1-42 was dissolved at a concentration of 40 μM in 20 mM phosphate buffer
T2 sequence (P05067 672-713 limits assumed): as above
Description: Aβ1-42 was dissolved at a concentration of 40 μM in 20 mM phosphate buffer (pH 7.0). The TAT-B6-L1 or TAT-B7-C15 peptide adjusted to 40 μM was added 1.5 hours thereafter at a ratio of 1:1 by liquid volume, and the reaction was allowed to proceed at 37° C. for 1 hour (final concentration: Aβ (20 μM)/synthesized peptide (20 μM)). After the reaction, an aliquot thereof was sampled as a sample before immunoprecipitation (“Before precipitation”), and the remaining sample was reacted with M-280 streptavidin-magnet beads (Dynal Biotech, Oslo, Norway) adjusted to 20 μg/μl on ice for 1 hour at a ratio of 1:1 by liquid volume (final concentration: Aβ (10 μM)/synthesized peptide (10 μM)/beads (10 μg/μl)). After the reaction, the beads were precipitated using a magnet to obtain “Supernatant.” To the precipitated beads, PBS was added in a liquid volume equal to that of the recovered supernatant to obtain a “Precipitate.” Each obtained sample was electrophoresed and subjected to Western blot analysis using anti-Aβ antibodies.
Aβ1-42 was dissolved at a concentration of 40 μM in 20 mM phosphate buffer (pH 7.0). The biotinylated TAT-B6-L1 or TAT-B7-C15 peptide was added thereto 1.5 hours thereafter, and the conjugates were precipitated using streptavidin-magnet beads.

TAT-B6-L1: B6-L1 sequence having a TAT sequence fused at the amino terminus, SEQ ID NO: 24 (Biotin-YGRKKRRQRRRGMLDIFAPIRHV)
binding activity of B6 scFv to coated peptide (B6 scFv): Binding reaction dependent on the amount of B6 scFv was observed
activity of inhibiting Aβ1-42 fibrillogenesis (Aβ1-42 peptide): demonstrated to have the activity of inhibiting fibrillogenesis
precipitation of Aβ oligomers or Aβ fibers by the peptide [1]: such Aβ oligomers or Aβ fibers were observed in the precipitate

GSGGGSCGYWRSEWGLCG (Designed peptide based on the sequence unrelated to B6 scFv) [control peptide, reference compound]
activity of inhibiting Aβ1-42 fibrillogenesis (Aβ1-42 peptide): no inhibiting activity
precipitation of Aβ oligomers or Aβ fibers by the peptide [1]: No precipitation reaction was observed

TAT-B7-S15: B7-S15 sequence having a TAT sequence fused at the amino terminus, SEQ ID NO: 27 (Biotin-YGRKKRRQRRRSYGTKPWMSG)
activity of inhibiting Aβ1-42 fibrillogenesis (Aβ1-42 peptide): demonstrated to have the activity of inhibiting fibrillogenesis

TAT-B7-C15: B7-C15 sequence (glycine added to carboxyl terminus) having a TAT sequence fused at the amino terminus, SEQ ID NO: 26 (Biotin-YGRKKRRQRRRCYGTKPWMCG; cysteine pairing not given here)
activity of inhibiting Aβ1-42 fibrillogenesis (Aβ1-42 peptide): demonstrated to have the activity of inhibiting fibrillogenesis
precipitation of Aβ oligomers or Aβ fibers by the peptide [1]: such Aβ oligomers or Aβ fibers were observed in the precipitate

B6-L1-TAT: B6-L1 sequence having a TAT sequence fused at the carboxyl terminus, SEQ ID NO: 25 (Biotin-GMLDIFAPIRHVYGRKKRRQRRR)
binding activity of B6 scFv to coated peptide (B6 scFv): Binding reaction dependent on the amount of B6 scFv was observed
activity of inhibiting Aβ1-42 fibrillogenesis (Aβ1-42 peptide): demonstrated to have the activity of inhibiting fibrillogenesis
